Experimental data as given in patent publication US20190040368A1.

Biological target: recombinant human iduronate-2 sulfatase (rhIDS) (human) (UniProt P22304)
Experiment: cell-based or functional assay

recombinant human iduronate-2 sulfatase (rhIDS) (human), sequence (P22304 26-550 limits assumed): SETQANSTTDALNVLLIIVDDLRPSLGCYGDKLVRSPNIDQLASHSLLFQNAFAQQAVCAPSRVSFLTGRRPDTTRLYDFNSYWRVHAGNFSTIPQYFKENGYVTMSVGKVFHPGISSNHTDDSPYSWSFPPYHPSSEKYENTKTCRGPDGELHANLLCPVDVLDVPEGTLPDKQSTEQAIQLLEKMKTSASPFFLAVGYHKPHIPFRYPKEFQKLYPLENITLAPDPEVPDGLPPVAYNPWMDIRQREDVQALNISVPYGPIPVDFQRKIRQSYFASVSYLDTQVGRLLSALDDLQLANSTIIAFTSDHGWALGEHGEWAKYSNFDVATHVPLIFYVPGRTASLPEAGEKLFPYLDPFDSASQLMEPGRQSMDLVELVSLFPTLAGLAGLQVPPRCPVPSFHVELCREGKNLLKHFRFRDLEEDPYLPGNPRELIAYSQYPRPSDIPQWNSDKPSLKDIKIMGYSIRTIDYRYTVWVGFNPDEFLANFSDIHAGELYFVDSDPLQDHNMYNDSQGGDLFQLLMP

Row | % FGly (LC-MS); 1 copy rhIDS, 1 copy BtFGE (POX) [%] | % FGly (LC-MS); 1 copy rhIDS, 1 copy BtFGE (POX), 1 copy hPDI (POX) [%] | % FGly (LC-MS); co-expression with DpFGE [%] | Substance
1 | 100 | 100 | – | Bos taurus FGE fusion protein (Lip2pre-BtFGE-6HIS-HDEL) (from UniProt Q0P5L5 34-374) (enzyme)
2 | – | – | 25 | Dendroctonus ponderosa Lip2-DpFGE-His6-HDEL fusion construct (enzyme)
